Experimental findings from patent publication US20080207501A1 (published 2008) are described below.

Broadly, the EC50 is the concentration that produces a half-maximal response. The low end stands for higher potency in that assay, the high end for lower potency in that assay.

Ends that are not written are not given here.

The experiment has as its target T1, amylin receptor (nucleus accumbens membranes prepared from rat brain) (rat, UniProt P32214 25-516).
T1 chain 1: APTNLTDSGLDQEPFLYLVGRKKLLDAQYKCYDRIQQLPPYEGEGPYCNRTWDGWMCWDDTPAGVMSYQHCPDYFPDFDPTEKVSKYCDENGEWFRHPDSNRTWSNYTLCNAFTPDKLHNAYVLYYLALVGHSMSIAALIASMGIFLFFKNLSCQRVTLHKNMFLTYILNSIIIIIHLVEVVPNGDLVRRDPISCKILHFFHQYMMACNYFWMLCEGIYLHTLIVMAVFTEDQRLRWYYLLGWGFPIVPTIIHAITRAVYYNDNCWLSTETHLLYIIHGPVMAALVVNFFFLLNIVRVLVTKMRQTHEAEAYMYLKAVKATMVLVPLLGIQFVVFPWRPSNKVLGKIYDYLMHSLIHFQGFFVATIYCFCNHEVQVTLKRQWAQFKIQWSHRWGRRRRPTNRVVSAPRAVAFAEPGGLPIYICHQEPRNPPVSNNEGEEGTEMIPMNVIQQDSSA
T1 chain 2: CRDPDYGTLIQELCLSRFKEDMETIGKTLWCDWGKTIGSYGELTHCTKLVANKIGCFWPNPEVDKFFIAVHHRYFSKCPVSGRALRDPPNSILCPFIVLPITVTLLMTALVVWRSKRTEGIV
The experiment is described as follows: radioligand binding assay (displacement of radiolabeled amylin).

Molecule TQAQLLRVGCVLGTCQVQNLSHRLWQLMGPAGRQDSAPVDPSSPHSY-NH2 (ends and bridges not checked) [Human AFP-6 [1-47]] showed an EC50 of 2.9 nM.
CGNLSTCMLGTYTQDFNKFHTFPQTAIGVGAP-NH2 (ends and bridges not checked) [Human Calcitonin] displayed a half-maximal effective concentration (EC50) above 100 nM.
